Columns and labels:
[1] = target: T1, Gal3 and CHI3L1 protein binding (Homo sapiens, UniProt P36222); assay: In vitro recombinant protein Co-IP competition (rGal3 + rCHI3L1 + increasing rGal3BP); conditions: 200 ng rGal3+200 ng rCHI3L1; rGal3BP 0-800 ng/sample; with or without TD139
T1 construct: purchased R&D Systems 2599-CH-050 (CHI3L1); 8259-GA-050 (Galectin-3)
Text: For in vivo THP-1 cell or in vitro recombinant protein Co-IP experiments, additional following antibodies were used: Mouse anti-CHI3L1 (Santa Cruz Biotechnology, Cat #SC-393590), Rat anti-Galectin-3 (Santa Cruz Biotechnology, Cat #SC-23938), anti-Galectin-3BP (Santa Cruz Biotechnology, Cat #SC-374541), Rabbit anti-CHI3L1 (Cell Signaling Technology, Cat #47066), and Rat IgG (BioXCell, Cat #BE0090).

PI3K/AKT/mTOR pathway = assay: Immunoblot of PI3K/AKT/mTOR signaling and transcription factors in M0 BMDMs; format: cell-based, mouse; conditions: 30 minutes
Protocol: Cells were lysed on ice using RIPA buffer (Millipore) supplemented with protease and phosphatase inhibitors (Roche). The protein concentration was determined by the BCA method and 15˜30 ug of total proteins were loaded and analyzed by Western blotting with indicated antibodies. For IHC staining, brain tissues were fixed in 10% formalin overnight and embedded in paraffin. For IF staining, fresh brain tissues were immediately frozen in OCT on dry ice. IHC and IF staining were performed as we described previously (Hu B et al., 2016). Additional information about antibodies is provided in the Supplementary Material and Methods section
Immunoblotting (IB), Immunohistochemistry (IHC), and Immunofluorescence (IF). […]

[2] = system: bone-marrow derived macrophages (BMDMs); assay: Scratch-wound healing assay, BMDM migration; format: cell-based, mouse; conditions: rCHI3L1 2.5 μg/mL, rGal3BP 5.0 μg/mL; scratch-wound healing
Protocol: (§1) BMDMs were isolated from male and female C57BL/6 mice as previously described (Ying W et al., 2013). Briefly, femur bones were isolated from mice, and IMDM (ATCC) supplemented with 10% FBS and P/S was used to flush the bone marrow into a petri dish. After 4-6-hour incubation, the floating cells were collected and resuspended in the medium with 20 ng/mL M-CSF (PrproTech). On day 6, the fully differentiated cells were designated as an M0 state. To induce BMDM polarization toward an M1 state, 100 ng/mL LPS (Invitrogen) and 50 ng/mL IFNγ (PrproTech) were added to the M0 cells for 24 hours. To induce BMDM polarization toward an M2 state, 20 ng/mL IL-4 (PrproTech) was added to the M0 cells for 72 hours.
BMDM were polarized to the indicated status (M0, M1, or M2) and seeded in 12-well plates at 80-90% confluency. The cells were switched to the medium without FBS for 6 hours of starvation. Scratches were made using pipettor tips and fresh IMDM with indicated recombinant proteins and/or peptides were added. Images of the scratches were captured at indicated times. For the SIM-A9 scratch-wound healing assay, 12-well plates were coated with 10 μg/mL fibronectin (Sigma-Aldrich) at 37° C. overnight before seeding cells.

[3] = system: Arg1, Ym1, Ccl2, Il10 gene expression; assay: qRT-PCR of immune suppression genes in M0 BMDMs; format: cell-based, mouse; conditions: rCHI3L1 2.5 μg/mL, rGal3 2.5 μg/mL, rGal3BP 5.0 μg/mL, 24 hours
Protocol: as §1
RNA was extracted and cDNA was synthesized as described previously (Hu B et al., 2016). qRT-PCR was performed using PowerSYBR Green PCR Master Mix (Applied Biosystems) and detected with a StepOnePlus Real-Time PCR System (Applied Biosystems). Each reaction was performed in duplicate or triplicate. The relative expression of genes was normalized to human RPL39 or mouse 18S ribosomal RNA. For RNA-seq experiments, cells from intracranial xenograft tumors were isolated and incubated with antibodies for immune cell types. Macrophages were isolated by FACS and RNA was then isolated and sent to Health Sciences Sequencing Core at UPMC Children's Hospital of Pittsburgh for RNA-seq. […]

[4] = system: bone-marrow derived macrophages (BMDMs); assay: Transwell migration assay, BMDM migration; format: cell-based, mouse; conditions: rCHI3L1 2.5 μg/mL, rGal3BP 5.0 μg/mL
Protocol: as §1
Polarized BMDMs were starved by removing FBS for 6 hours. Cells were collected and 2×10^5 cells in 200 μL of IMDM were added into each transwell insert (Millipore, Cat #MCMP24H48). 700 μL of IMDM containing 2% FBS and the indicated recombinant proteins was added to the bottom of the plates. After 14-hour incubation, transwell inserts were stained with HEMA 3 Stain Set (Fisher Scientific). Insert membranes were separated and mounted on glass slides with CYTOSEAL XYL (ThermoFisher) and images were taken by an inverted microscope (Leica DM 2500). For the SIM-A9 cells, the inserts were coated with 10 μg/mL fibronectin overnight in advance of seeding cells.

T1 sequence (P36222 22-383): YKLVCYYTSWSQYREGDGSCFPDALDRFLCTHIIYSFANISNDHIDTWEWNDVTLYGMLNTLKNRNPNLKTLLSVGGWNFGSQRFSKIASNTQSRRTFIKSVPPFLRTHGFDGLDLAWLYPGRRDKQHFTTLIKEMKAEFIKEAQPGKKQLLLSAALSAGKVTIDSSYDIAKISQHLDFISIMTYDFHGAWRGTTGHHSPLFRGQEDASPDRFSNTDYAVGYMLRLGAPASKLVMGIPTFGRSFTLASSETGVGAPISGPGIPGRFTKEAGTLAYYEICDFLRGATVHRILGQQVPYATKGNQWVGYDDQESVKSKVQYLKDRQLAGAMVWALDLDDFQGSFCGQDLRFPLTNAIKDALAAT

B1: rGal3BP: recombinant Gal3BP protein; Galectin-3-binding protein, monomer PDB 6GFB used for docking (protein)
chain: VNDGDMRLADGGATNQGRVEIFYRGQWGTVCDNLWDLTDASVVCRALGFENATQALGRAAFGQGSGPIMLDEVQCTGTEASLADCKSLGWLKSNCRHERDAGVVCTNETRSTHTLDLSRELSEALGQIFDSQRGCDLSISVNVQGEDALGFCGHTVILTANLEAQALWKEPGSNVTMSVDAECVPMVRDLLRYFYSRRIDITLSSVKCFHKLASAYGARQLQGYCASLFAILLPQDPSFQMPLDLYAYAVATGDALLEKLCLQFLAWNFEALTQAEAWPSVPTDLLQLLLPRSDLAVPSELALLKAVDTWSWGERASHEEVEGLVEKIRFPMMLPEELFELQFNLSLYWSHEALFQKKTLQALEFHTVPFQLLARYKGLNLTEDTYKPRIYTSPTWSAFVTDSSWSARKSQLVYQSRRGPLVKYSSDYFQAPSDYRYYPYQSFQTPQHPSFLFQDKRVSWSLVYLPTIQSCWNYGFSCSSDELPVLGLTKSGGSDRTIAYENKALMLCEGLFVADVTDFEGWKAAIPSALDTNSSKSTSSFPCPAGHFNGFRTVIRPFYLTNSSGVD
competition with Gal3 for binding CHI3L1 (Co-IP) [1]: compete for the same binding site in CHI3L1
levels of p-AKT (T473 and S308), p-S6, and p-mTOR (PI3K/AKT/mTOR pathway): inhibited
rCHI3L1-induced M2 BMDM migration [2]: significantly attenuated
expression of genes related to anti-inflammation (Arg1, Ym1, Ccl2, Il10) [3]: significantly inhibited
rCHI3L1-induced M2 BMDM migration [4]: significantly attenuated

Reference: patent US20240156901A1, “GAL3BP POLYPEPTIDE COMPOSITIONS AND METHODS FOR TREATMENT OF CANCER AND DETERMINING TREATMENT RESPONSIVENESS” (UNIVERSITY OF PITTSBURGH-OF THE COMMONWEALTH SYSTEM OF …, priority 2021, published 2024)
